Where a chain is given by its changes, count along the chain named.
T1: TG1 (human, UniProt P22735)
T1 construct: recombinant, Zedira; also called recombinant human TG1; Keratinocyte Transglutaminase
T1 sequence (enzyme, looked up): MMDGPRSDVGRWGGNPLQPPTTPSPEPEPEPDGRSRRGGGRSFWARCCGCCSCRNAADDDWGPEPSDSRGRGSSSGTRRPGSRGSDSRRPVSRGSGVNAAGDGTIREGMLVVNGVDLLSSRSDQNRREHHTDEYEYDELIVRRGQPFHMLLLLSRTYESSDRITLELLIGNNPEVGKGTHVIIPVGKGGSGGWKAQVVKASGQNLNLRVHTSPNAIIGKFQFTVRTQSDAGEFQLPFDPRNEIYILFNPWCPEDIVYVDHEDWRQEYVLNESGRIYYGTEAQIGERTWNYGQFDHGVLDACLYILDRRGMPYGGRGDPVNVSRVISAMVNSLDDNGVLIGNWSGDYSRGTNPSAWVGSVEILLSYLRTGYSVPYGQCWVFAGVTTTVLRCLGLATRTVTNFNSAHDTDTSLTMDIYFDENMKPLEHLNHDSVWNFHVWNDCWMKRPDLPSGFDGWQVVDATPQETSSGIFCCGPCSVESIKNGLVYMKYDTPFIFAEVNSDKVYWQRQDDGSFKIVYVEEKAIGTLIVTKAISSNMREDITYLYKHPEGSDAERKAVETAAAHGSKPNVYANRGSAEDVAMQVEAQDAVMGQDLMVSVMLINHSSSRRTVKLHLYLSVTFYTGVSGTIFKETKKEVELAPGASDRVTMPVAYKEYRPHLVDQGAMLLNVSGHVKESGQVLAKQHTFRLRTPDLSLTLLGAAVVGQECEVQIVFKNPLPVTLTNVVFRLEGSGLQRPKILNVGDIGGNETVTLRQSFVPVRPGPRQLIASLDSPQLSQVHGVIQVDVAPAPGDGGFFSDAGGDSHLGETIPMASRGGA

T2: TG7 (human, UniProt Q96PF1)
T2 construct: recombinant, Zedira; also called recombinant human TG7
T2 sequence (enzyme, looked up): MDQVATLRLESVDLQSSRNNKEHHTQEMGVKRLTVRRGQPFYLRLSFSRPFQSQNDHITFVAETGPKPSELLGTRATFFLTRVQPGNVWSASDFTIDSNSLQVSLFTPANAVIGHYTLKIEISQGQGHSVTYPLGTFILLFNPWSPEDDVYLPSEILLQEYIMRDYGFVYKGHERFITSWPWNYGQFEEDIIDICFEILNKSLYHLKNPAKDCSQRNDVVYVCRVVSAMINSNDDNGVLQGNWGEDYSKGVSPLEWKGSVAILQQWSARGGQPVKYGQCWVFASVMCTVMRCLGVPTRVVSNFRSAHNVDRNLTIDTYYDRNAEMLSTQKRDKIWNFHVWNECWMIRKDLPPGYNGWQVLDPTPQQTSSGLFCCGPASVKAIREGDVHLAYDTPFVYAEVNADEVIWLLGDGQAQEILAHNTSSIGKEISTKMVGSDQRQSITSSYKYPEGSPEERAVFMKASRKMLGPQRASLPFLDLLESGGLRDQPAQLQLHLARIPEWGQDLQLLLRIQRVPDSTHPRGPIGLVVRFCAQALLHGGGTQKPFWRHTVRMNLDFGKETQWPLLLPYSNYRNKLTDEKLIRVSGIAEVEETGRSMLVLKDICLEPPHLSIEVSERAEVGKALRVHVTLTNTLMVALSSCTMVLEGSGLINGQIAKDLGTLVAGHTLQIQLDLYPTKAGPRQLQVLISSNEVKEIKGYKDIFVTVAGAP

T3: mouse TG2 (mouse, UniProt P21981 1-686, limits assumed)
T3 sequence: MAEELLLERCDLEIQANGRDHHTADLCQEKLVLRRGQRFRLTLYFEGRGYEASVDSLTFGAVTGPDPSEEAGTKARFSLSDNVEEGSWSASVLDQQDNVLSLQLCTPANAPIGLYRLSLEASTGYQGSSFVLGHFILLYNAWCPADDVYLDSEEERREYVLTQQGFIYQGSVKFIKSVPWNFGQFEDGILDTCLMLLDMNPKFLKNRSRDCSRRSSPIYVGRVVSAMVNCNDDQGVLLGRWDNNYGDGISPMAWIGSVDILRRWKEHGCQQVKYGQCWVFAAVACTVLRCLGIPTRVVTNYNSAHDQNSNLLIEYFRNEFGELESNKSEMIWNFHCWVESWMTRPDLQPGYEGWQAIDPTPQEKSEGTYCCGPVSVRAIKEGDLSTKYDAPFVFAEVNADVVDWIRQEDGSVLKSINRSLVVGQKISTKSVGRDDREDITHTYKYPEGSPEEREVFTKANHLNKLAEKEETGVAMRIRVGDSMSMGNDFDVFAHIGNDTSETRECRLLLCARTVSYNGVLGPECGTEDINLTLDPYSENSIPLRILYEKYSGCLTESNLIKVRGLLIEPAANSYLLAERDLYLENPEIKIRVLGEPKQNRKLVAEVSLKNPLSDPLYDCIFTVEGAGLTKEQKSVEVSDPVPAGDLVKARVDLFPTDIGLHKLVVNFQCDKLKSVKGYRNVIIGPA

B1: AB1 murine monoclonal antibody (antibody, V domains shown)
VH: EVQLVESGGGLVKPGGSLKLSCAASGFTLSSSAMSWVRQTPDRRLEWVATISVGGGKTYYPDSVKGRFTISRDNAKNTLYLQMNSLRSEDTAMYYCAKLISLYWGQGTTLTVSS
VL: DIKMTQSPSSMYASLGERVTITCKASQDINSYLTWFQQKPGKSPKTLIYRTNRLFDGVPSRFSGSGSGQDFFLTISSLEYEDMGIYYCLQYDDFPYTFGGGTKLEIK
notes: Mouse hybridoma IgG; heavy chain amplified with constant region primer MHCG1, kappa light chain; also called mAB003
B2: AG9 murine monoclonal antibody (antibody, V domains shown)
VH: EVQLQQSGPELVKPGASVKMSCRASGYTFTTYVIHWVKQKPGQGLEWIGYINPYNDGARYNEKFKGKATLTSDKSSTTAYMELSSLTSEDSAVYYCARLSSDYWGQGTTLTVSS
VL: DVLMTQNPLSLPVSLGDQASISCRSSRSIEHSNGNTYLEWYLQKPGQSPKFLIYKVSNRFSGVPDRFSGSGSGTDFTLRISSVEAEDLGVYYCFQGSHVPFTFGGGTKLEIK
notes: Mouse hybridoma IgG; heavy chain amplified with primer MHCG1, kappa light chain
B3: JE12 murine monoclonal antibody (antibody, V domains shown)
VH: B2 VH with R23K, T28R, T31S, I34M, P41S, R59K, T77S
VL: B2 VL with R27Q, S32I, S82R, V90I
notes: as for B2
B4: DC1 murine monoclonal antibody (antibody, V domains shown)
VH: EVQLVESGGGLVKPGGSLKLSCAASGFTLSTHAMSWVRQTPEKRLEWVATISSGGRSTYYPDSVKGRFTISRDNVKNTLYLQLSSLRSEDTAVYFCARLISTYWGQGTTLTVSS
VL: B1 VL with K3T, M11I, T46I, R50L, T51V, F55V, F71Y, F72A
notes: Mouse hybridoma IgG; heavy chain amplified with primer MHCG1, kappa light chain; also called mDC001
B5: DH2 murine monoclonal antibody (antibody, V domains shown)
VH: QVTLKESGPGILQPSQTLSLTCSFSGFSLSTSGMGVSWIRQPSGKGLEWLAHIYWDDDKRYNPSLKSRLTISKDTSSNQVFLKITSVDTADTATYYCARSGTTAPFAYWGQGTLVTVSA
VL: QIVLTQSPAIMSASPGEKVTMTCSASSSVSYMYWYQQKPGSSPRLLIYDTSNLASGVPVRFSGSGSGTSYSLTISRMEAEDAATFYCQQWSSSPLTFGAGTKLELK
notes: Mouse hybridoma IgG; heavy chain amplified with primer MHCG2B, kappa light chain; also called mDH001
B6: DD9 murine monoclonal antibody (antibody, V domains shown)
VH: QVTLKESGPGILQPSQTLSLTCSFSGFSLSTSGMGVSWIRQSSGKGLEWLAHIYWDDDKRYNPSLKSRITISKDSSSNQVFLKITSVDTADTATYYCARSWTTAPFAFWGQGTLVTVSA
VL: B5 VL with S30D, E78G, F85Y, S91N
notes: Mouse hybridoma IgG; heavy chain amplified with primer MHCG2A, kappa light chain; also called mDD9001
B7: EH6 murine monoclonal antibody (antibody, V domains shown)
VH: B2 VH with R23K, T31S, I34M, Y50F, A58T, R59K, S75A, L99F, D102G
VL: B2 VL with N7T, R27Q, E30V, F51L, R79K, S82R, E84G, F94L, G96V, G105S
notes: Mouse hybridoma IgG; heavy chain amplified with primer MHCG2B, kappa light chain
B8: AH3 murine monoclonal antibody (antibody, V domains shown)
VH: B2 VH
VL: B2 VL
notes: as for B7
B9: BB7 murine monoclonal antibody (antibody, V domains shown)
VH: AVQLVESGGGLVKPGGSLKLSCAASGIIFSSSAMSWVRQTPEKRLEWVATISSGGRSTYYPDSVKGRFTVSRDSAKNTLYLQMDSLRSEDTAIYYCAKLISPYWGQGTTLTVSS
VL: B1 VL with D1A, T20I, R50L, F55M, D70E, F72L, S77G, Y80H, D92V
notes: Mouse hybridoma IgG; heavy chain amplified with primer MHCG1, kappa light chain; also called mBB001

What follows are binders tested against T1, TG1 (assay: ELISA, hybridoma conditioned medium, plates coated with recombinant TG (100 ng/well) [panel A]).
Description: (§1) Conditioned medium or purified IgG were tested for reactivity to transglutaminase family members. The ability of each to bind to each transglutaminase (TG1, TG2, TG3, TG5, TG7 and Factor XIIIa; all Zedira) was determined using a plate binding assay. Microtiter plates (Costar, Cambridge, UK) were coated with recombinant TG (Zedira, Darmstadt, Germany) in 50 μl of 0.1 M bicarbonate/carbonate buffer (pH 9.6) overnight at 4° C. Plates were blocked for 2 h at 37° C. with 200 μl PBS containing 3% w/v BSA. Plates were washed three times with PBS containing 0.05% Tween 20 (washing buffer) and 100 μl of diluted conditioned medium (dilution 1:5 to 1:20) or purified anti-TG2 catalytic core mAbs was added. Plates were incubated for a further 1 h at room temperature. The washing step was repeated and anti-mouse gamma chain-horseradish peroxidase (1:5000) in PBS containing 0.05% Tween 20 (v:v) and 1% BSA (w:v) (Sigma, Poole UK) was added for 1 h. […] The reaction was stopped by adding 25 μl of 0.1 M H_2SO_4 and the absorbance at 450 nm was determined.

Row | Binder | binding result
1 | B1 | no binding
2 | B2 | no binding
3 | B3 | no binding
4 | B4 | no binding
5 | B5 | no binding
6 | B6 | no binding
7 | B7 | no binding
8 | B8 | no binding
9 | B9 | no binding

These binders were tested against T2, TG7 (assay: ELISA, purified IgG at 0.1 ug/ml, plates coated with 100 ng of each TG [panel B]).
Description: as §1

Row | Binder | binding result
10 | B1 | no binding (tested: 0.1 ug/ml)
11 | B2 | no binding (tested: 0.1 ug/ml)
12 | B3 | no binding (tested: 0.1 ug/ml)
13 | B4 | no binding (tested: 0.1 ug/ml)
14 | B5 | no binding (tested: 0.1 ug/ml)
15 | B6 | no binding (tested: 0.1 ug/ml)
16 | B7 | no binding (tested: 0.1 ug/ml)
17 | B8 | no binding (tested: 0.1 ug/ml)

Each binder was assayed against T3, mouse TG2 (assay: western blot and ELISA).

Row | Binder | binding result
18 | B3 | binds
19 | B4 | binds
20 | B5 | binds
21 | B6 | binds
22 | B7 | binds
23 | B9 | binds
